# The supplement of paper PMC9170038
# Key:
# [1] = tested on: MS2 coat protein; assay: apparent KD of MS2 coat protein; designed switch direction (-1 OFF switch, 1 ON switch): 1; higher = weaker reporter binding; settings: Eterna round: R98
# Procedure: (§1)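 RNA-MaP: designed FMN/MS2 RNA switches (84 nt design region) are transcribed on-chip within common flanks and titrated with SNAP-549-labelled MS2 coat protein (about 1-3000 nM) in 100 mM Tris pH 7.5, 80 mM KCl, 4 mM MgCl2, without or with 200 uM FMN. Median apparent KD per design; activation ratio = KD,OFF / KD,ON.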
# [2] = tested on: MS2 coat protein; assay: apparent KD of MS2 coat protein; higher = weaker reporter binding; settings: Eterna round: R101
# Procedure: as §1
# [3] = tested on: MS2 coat protein; assay: apparent KD of MS2 coat protein, switch ON state; designed switch direction (-1 OFF switch, 1 ON switch): 1; higher = weaker reporter binding; settings: FMN input: 0 or 200 uM; Eterna round: R93 (includes R88 designs)
# Outline: (§2)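 For every design, apparent KD is the median of normalised binding-curve fits from its clusters. The RNA switches were transcribed on-chip from Illumina sequencing clusters and titrated with SNAP-549-labelled MS2 coat protein (twofold steps, 0.7 or 1.5 nM to 3 µM; 0.8–1.5 h to 10–20 min per step). Titrations used 100 mM Tris-HCl pH 7.5, 80 mM KCl, 4 mM MgCl2, without or with constant ligand.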
# [4] = tested on: MS2 coat protein; assay: apparent KD of MS2 coat protein, switch OFF state (with FMN for OFF switches, without FMN for ON switches); designed switch direction (-1 OFF switch, 1 ON switch): 1; higher = weaker reporter binding; settings: FMN input: 0 or 200 uM; Eterna round: R93 (includes R88 designs)
# Outline: as §2
Sequence,apparent KD of MS2 coat protein ([1]; input ligand: FMN 200 uM),apparent KD of MS2 coat protein ([1]; input ligand: none),further results
AAAAUAAAAUAAAUUAACAUGAGGAUCACCCAUGUCGCUAGACAGGAUAUAUAAAAUAAAAUAAAGUAGAAGGGUCAAAUAAAA [LRO001_SS NG 3],88.2 nM,114 nM,–
AAAAUAUAAUAUAUUAACAUGAGGAUCACCCAUGUCGCUAGACAGGAUAUAUAAAAUAAAAUAAAGUAGAAGGGUCAUAUAAUA [LRO003_SS NG 3],93.9 nM,56.4 nM,–
AAACUUAUCACAGGAUAUUCCUGAGGAUGCCAGGGAGAAGGGUGACUCUUGGGACAUGAGGAUCACCCAUGUUCUGUGGGAAAA [Xeusdior],190 nM,182 nM,–
AAAUAAACUCAAGGAUAUGACUCCGAAACGGAGUCAGAAGGUGAGGAUCACCCACCUAAGAUCAGACCUCAGGAAACUGAGGUC [#SharedSequence ExNG1 - 36] (puzzle (switch architecture): Exclusion NG 1),–,–,apparent KD of MS2 coat protein ([2]; input ligand: FMN 200 uM): 13.2 nM; apparent KD of MS2 coat protein ([2]; input ligand: none): 6.46 nM
AAAUAAAUUCAAGGAUAUCAGUGGCAAAGCCACUGAGAAGGUGAGGAUCACCCACCUAUGAUCACAGGUGACGAAAGUCACCUG [#SharedSequence ExNG1 - 38] (puzzle (switch architecture): Exclusion NG 1),–,–,apparent KD of MS2 coat protein ([2]; input ligand: FMN 200 uM): 11.4 nM; apparent KD of MS2 coat protein ([2]; input ligand: none): 11.3 nM
AAAUCUCGAGCCGACGGGAGAGUACAUGAGGAUCACCCAUGUGAGGAUAUCCCUGAGAAGACGGCGGAGAAGGCACUGGGUAGG [Erzaribeve] (puzzle (switch architecture): Exclusion NG 3),–,–,apparent KD of MS2 coat protein ([2]; input ligand: FMN 200 uM): 9.95 nM; apparent KD of MS2 coat protein ([2]; input ligand: none): 8.6 nM
AAAUGAUAUCAGAAGGGCUCCAGCAAAGCUGGAGCAGGAUAUGAGGAUCACCCAUGUCACCUGACGGUCGAAACGACCGUCAGG [#SharedSequence - IExNG1: 7-3] (puzzle (switch architecture): Inverted Exclusion NG 1),–,–,apparent KD of MS2 coat protein ([2]; input ligand: FMN 200 uM): 205 nM; apparent KD of MS2 coat protein ([2]; input ligand: none): 26.6 nM
AAAUGCCUGUCGAUGCUCGACAUGAGGAUCACCCAUGUAUAGCAGGAUAUGCAGAACUGACUCGUGCAGAAGGGCUAUACCUAA (puzzle (switch architecture): Exclusion NG 3),–,–,apparent KD of MS2 coat protein ([2]; input ligand: FMN 200 uM): 52.8 nM; apparent KD of MS2 coat protein ([2]; input ligand: none): 18.7 nM
AAUAAUCUUUAAGGAUAUCAGUGGCAAAGCCACUGAGAAGGUGAGGAUCACCCACCUACGUGACCCUGGAAACAGGGUCACGAA [#SharedSequence - ExNG1-10] (puzzle (switch architecture): Exclusion NG 1),–,–,apparent KD of MS2 coat protein ([2]; input ligand: FMN 200 uM): 15.4 nM; apparent KD of MS2 coat protein ([2]; input ligand: none): 14.3 nM
ACGUUAAUUCGAGGAUAUCGGUGAUUUAUAUUACGAGAAGGCGAUAAUUGUGAACAACUUAUAGACAUGAGGAUCACCCAUGUA [JR_SSNG1_Sub065],21.3 nM,28.6 nM,–
AGCGGUAGGACAGGAUAUGGUGACUUCAAGCGGCCAGAAGGGUCCCGACAUGAGGAUCACCCAUGUCUUCCAGGCAGGAAGCGC [Bequques],443 nM,239 nM,–
AUAUAUAUAUAGAAGGACAUGAGGAUCACCCAUGUCGCCGGGCCCGGGAAACCGGGCCCGGCCAUGUAGGAUAUAUAUAUAUAU [#This is a good prank 12] (puzzle (switch architecture): Inverted Exclusion NG 2),–,–,apparent KD of MS2 coat protein ([2]; input ligand: FMN 200 uM): 5.57 nM; apparent KD of MS2 coat protein ([2]; input ligand: none): 3.55 nM
CACGUCCUCACAGGAUAUGCUGGACUUUGUCCAGCAGAAGGGUGAAACAUGAGGAUCACCCAUGUAAGGACGUGUAUAUUUAAU [Denovo 21],1470 nM,187 nM,–
CAGUCGACCAUAACAAGGUCGACUGACUUCUGAGGAUCACCCAGAAGGCGUCACCUAAUAGGUGACGAGGAUAUGGAGUGAAAA [#SharedSequence IExNG# - 6] (puzzle (switch architecture): Inverted Exclusion NG 3),–,–,apparent KD of MS2 coat protein ([2]; input ligand: FMN 200 uM): 75 nM; apparent KD of MS2 coat protein ([2]; input ligand: none): 95 nM
CCGAAUGUCACAGGAUAUGGUCCGGGCACGCGACCAGAAGGGUGAUCUCACAUGAGGAUCACCCAUGUGUAGGCGUUAGACUAC [Dierata],191 nM,96.6 nM,–
CGGAUCGCAUGAGGAUAUGGUCAGCUUUGCUGACCAGAAGGCAUGUCAAUAGACAUGAGGAUCACCCAUGUAGUUAAGAUCCGA [Mat - Same State NG 1 - JL Mod - D17],45.5 nM,644 nM,–
GAGAAGAAGUUAGGAUAUUGGAUAGGGACGGAAUAAGAAGGAGCAAGGGACAUGAGGAUCACCCAUGUAGAAGAAGAGAUCCUC [X-NG1_50] (puzzle (switch architecture): Exclusion NG 1),–,–,apparent KD of MS2 coat protein ([2]; input ligand: FMN 200 uM): 10.9 nM; apparent KD of MS2 coat protein ([2]; input ligand: none): 26.7 nM
GCAGCUAAUGCAGGAUAUCAGCACGUGUAGUGCUGAGAAGGGCACAUGAGGAUCAAAACUGUGAUCAAUUAAUAUUAAUGCUGC [salish99#hingeEx3_55-58_001] (puzzle (switch architecture): Exclusion NG 1),–,–,apparent KD of MS2 coat protein ([2]; input ligand: FMN 200 uM): 8.28 nM; apparent KD of MS2 coat protein ([2]; input ligand: none): 9.12 nM

Sequence,apparent KD of MS2 coat protein ([1]; input ligand: FMN 200 uM),apparent KD of MS2 coat protein ([1]; input ligand: none),further results
GGGUGGGUCACAGGAUAUCCCGUGAGCCACAUGAGGAUCACCCAUGUAUCACGACGAAAGAAGAAGGAGAAGGGUGACCCUGAU [Tibiiste],29.8 nM,40.7 nM,–
GGUCCAACAUGAGGAUAUGGCACCUUAUUGGUGCCAGAAGGCGUGUCGAUAGACAUGAGGAUCACCCAUGUAAUAAAUUGGACC [SameState #23 NG1],138 nM,467 nM,–
GUAACAUGAGGAUCACCCAUGUCGUGCUAGAUGAGUUCUGGUGAGGAUAUACAUGGUAAAUAACUGUAGAAGGCACUGGGUACA [SameState #67 NG3],44.7 nM,133 nM,–
"GUCGAAUUCUUAGGAUAUCGAGUGGAAUACACUCGAGAAGGAAGAUAUACCUGAGGAUCACCCAGGUUAAACUGAACGACAAUA [Same State NG1 - A3C, U17G Submission 7C]",17.6 nM,17.6 nM,–
GUGGACGUAGGAUAGGAUAUAUGAAUAAUUACAUGAGGAUCACCCAUGUCCAUUUAUAUGGGAACAUAGAAGGGUUGUGGUUAAC [Mat - Same state - Malcolm Mod - D132],–,–,apparent KD of MS2 coat protein [3]: 364 nM; apparent KD of MS2 coat protein [4]: 602 nM
GUGGUGUAGGUACAGGAUAUGUUGCUCGUAACAUGAGGAUCACCCAUGUACCUAUGAGAUUAAAUGCAGAAGGGUGCACACCACG [Alage],–,–,apparent KD of MS2 coat protein [3]: 37.3 nM; apparent KD of MS2 coat protein [4]: 118 nM
UAAAAAAAAAGACAGGAUAUCCAAAAGAAAACAUGAGGAUCACCCAUGUAAAAGAAAAUAAAAUGGGAGAAGGGUCAAAAAAAAU [Mat - Same State 2 - JL mod - D79],–,–,apparent KD of MS2 coat protein [3]: 31 nM; apparent KD of MS2 coat protein [4]: 53.5 nM
UAAUAAUAAACCAAGGAUAUGGAGUAUAGCACAUGAGGAUCACCCAUGUGUAGCGUGGGUUAGUACCAGAAGGUGGAGUGAAAUG [JR_SS002_Sub1001],–,–,apparent KD of MS2 coat protein [3]: 87.8 nM; apparent KD of MS2 coat protein [4]: 82.8 nM
UAGUGUUCUCGAGGAUAUGGGUUCCGUUUUAGCCCAGAAGGCGAACAUGAGGAUCACCCAUGUAUGAAUACACAGCAGAAUUGU [Teedri],153 nM,1750 nM,–
UAUAUAUAUUGAGGAUAUGCACAGGAUCACCGUGUAGAAGGCAUCAGGGAGAAGGUGCAGAGGAUCACCCUGUAAGGAUAUCAU [pwkr2 ssNG1 DX.1],146 nM,205 nM,–
UAUUUAUGGUGAGGAUAUGCAAAGGAUCACCUUGUAGAAGGCAUCAGGUAGAAGGUGCAGAGGAUCACCCUGUAAGGAUAUAUC [pwkr2 ssNG1 DX.22],66.1 nM,232 nM,–
UCACUCACGUUAGGAUAUGGAUCGGAAAACGAUCCAGAAGGAACCUGCAAACCUGAGGAACACCCAGGUUCCAAUAACGAGUGA [SameSame 8 - Jieux - Same State NG 1],745 nM,839 nM,–
UCCGAUGUACAUGAGGAUCACCCAUGUCAUAUGCCCGUGACACAGGAUAUCCAGGGUAGGCCAAAGGAGAAGGGUGAUCCGCGG [Lelete],122 nM,51.8 nM,–
UGAAGACAUGAGGAUCACCCAUGUGGGAAUAUGGGAGGAUAUACAAAGACGAGAGUCAGAGUAGAAGGCCUAGGAC [salish99-ss1-98],–,–,apparent KD of MS2 coat protein [3]: 47.9 nM; apparent KD of MS2 coat protein [4]: 133 nM
UGGAGGAAGAGAGAGGAUAUCCAAAGGAAAACAUGAGGAUCACCCAUGUAAAAGGUAGGAAAUUGGGAGAAGGCUCAAGAGAGAG [salish99-ss2-059],–,–,apparent KD of MS2 coat protein [3]: 37.2 nM; apparent KD of MS2 coat protein [4]: 63.7 nM
UUUAUUUAUUGAGGAUAUGCACAGGAUCACCGUGUAGAAGGCAUCAGGGAGAAGGUGCAGAGGAUCACCCUGUAAGGAUAUCAC [pwkr2 ssNG1 DX.2],144 nM,381 nM,–
UUUAUUUUUAGAGGAUAUAUAGAGAGAGAGAGAAUAGAAGGCUAAACAUACAUGAACAUGAGGAUCACCCAUGUCACCCAUGUU [Attempt 2],34.3 nM,28.3 nM,–
UUUCAUUACACGAAGGAUAUCGCUUUUCAGACAUGAGGAUCACCCAUGUAGUAGAUUUCCCUGUUCGAGAAGGUCGCGGGUGAAC [JR_SS002_Sub603],–,–,apparent KD of MS2 coat protein [3]: 51.5 nM; apparent KD of MS2 coat protein [4]: 70.4 nM
